The target of one data set is His6-DBD (Arabidopsis thaliana Col-0, UniProt O80982 42-135). The data set is described as follows: EMSA; EMSA: LightShift kit 1x binding buffer, 50 ng poly(dI-dC), 2.5% glycerol, 0.05% NP-40, 5 mM MgCl2, 100 ng protein, 1.5 ng probe, 30 min, room temperature; pull-down: 50 mM Tris-HCl pH 7.5, 100 mM NaCl, 0.1% Triton X-100, poly(dI-dC), 25 C. Particulars: protein: recombinant; tags: His6 (pET-28a); label: 5' biotin; blunt. A general note: In EMSA bound probe runs differently from free probe, usually more slowly.

In data set [1] the target is T1, His6-HsfA2 (Arabidopsis thaliana Col-0, UniProt O80982 1-345). The data set is described as follows: streptavidin-agarose pull-down; 0 hr prebinding control; EMSA: LightShift kit 1x binding buffer, 50 ng poly(dI-dC), 2.5% glycerol, 0.05% NP-40, 5 mM MgCl2, 100 ng protein, 1.5 ng probe, 30 min, room temperature; pull-down: 50 mM Tris-HCl pH 7.5, 100 mM NaCl, 0.1% Triton X-100, poly(dI-dC), 25 C. As to conditions: protein: recombinant; tags: His6 (pET-28a); chain copies: 3; label: 5' biotin; blunt.

A further data set has as its target His6-S-HsfA4c (Arabidopsis thaliana Col-0, UniProt J7FXE8 1-102). As to the kind of experiment: EMSA; EMSA: LightShift kit 1x binding buffer, 50 ng poly(dI-dC), 2.5% glycerol, 0.05% NP-40, 5 mM MgCl2, 100 ng protein, 1.5 ng probe, 30 min, room temperature; pull-down: 50 mM Tris-HCl pH 7.5, 100 mM NaCl, 0.1% Triton X-100, poly(dI-dC), 25 C. Particulars: protein: recombinant; tags: His6 (pET-28a); label: 5' biotin; blunt.

Another data set has as its target His6-S-HsfB2a (Arabidopsis thaliana Col-0, UniProt J7G5V7 1-85). The data set is described as above. Particulars: protein: recombinant; tags: His6 (pET-28a); label: 5' biotin; blunt.
Data set [2] deals with T1, His6-HsfA2. The data set is described as above. Particulars: protein: recombinant; tags: His6 (pET-28a); chain copies: 3; label: 5' biotin; blunt.
The next data set deals with His6-S-HsfB1 (Arabidopsis thaliana Col-0, UniProt J7FYU6 1-86). The description is as above. As to conditions: protein: recombinant; tags: His6 (pET-28a); label: 5' biotin; blunt.
Another data set deals with His6-tDBD (Arabidopsis thaliana Col-0, UniProt J7G1E7 42-103). The data set is described as above. As to conditions: protein: recombinant; tags: His6 (pET-28a); label: 5' biotin; blunt.
Sequence of His6-tDBD (J7G1E7 entry or part of it): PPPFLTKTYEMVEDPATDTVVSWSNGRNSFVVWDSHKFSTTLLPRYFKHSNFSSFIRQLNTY

T1 sequence (O80982 whole entry): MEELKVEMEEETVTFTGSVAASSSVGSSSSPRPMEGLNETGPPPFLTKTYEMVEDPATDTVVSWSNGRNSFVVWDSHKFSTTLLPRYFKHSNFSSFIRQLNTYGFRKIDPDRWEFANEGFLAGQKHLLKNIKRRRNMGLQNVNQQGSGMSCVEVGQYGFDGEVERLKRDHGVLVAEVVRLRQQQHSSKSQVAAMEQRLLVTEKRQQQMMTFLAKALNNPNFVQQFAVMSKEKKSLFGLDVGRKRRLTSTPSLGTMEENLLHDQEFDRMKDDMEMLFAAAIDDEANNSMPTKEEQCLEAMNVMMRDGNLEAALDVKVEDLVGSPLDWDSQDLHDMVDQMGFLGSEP
Sequence of His6-S-HsfA4c (J7FXE8 entry or part of it): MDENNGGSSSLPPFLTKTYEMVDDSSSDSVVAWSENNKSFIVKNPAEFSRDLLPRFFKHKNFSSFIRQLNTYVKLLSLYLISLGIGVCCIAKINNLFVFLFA
Sequence of His6-S-HsfB1 (J7FYU6 entry or part of it): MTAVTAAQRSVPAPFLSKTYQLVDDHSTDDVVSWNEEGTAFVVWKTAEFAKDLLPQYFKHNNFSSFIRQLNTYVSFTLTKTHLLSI
Sequence of His6-S-HsfB2a (J7G5V7 entry or part of it): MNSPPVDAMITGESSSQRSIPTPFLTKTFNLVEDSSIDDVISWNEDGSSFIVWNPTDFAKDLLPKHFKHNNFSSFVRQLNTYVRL
Sequence of His6-DBD (O80982 42-135): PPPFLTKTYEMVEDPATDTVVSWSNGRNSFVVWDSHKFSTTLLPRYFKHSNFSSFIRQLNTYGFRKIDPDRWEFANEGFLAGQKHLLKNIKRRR

B1: HSE probe (dsDNA)
DNA 1: TCGACTTCTAGAAGCTTCCAGAAATTAG
DNA 2: CTAATTTCTGGAAGCTTCTAGAAGTCGA
With B1, the binding result with His6-DBD and with His6-HsfA2 [1] was “binds” throughout.

B2: 3xHRE probe (dsDNA)
DNA 1: GAAGAAGGAAGAAGGAAGAAG
DNA 2: CTTCTTCCTTCTTCCTTCTTC
On to B2, for which the binding result with His6-S-HsfA4c is “binds”; with His6-S-HsfB2a, “no binding”; in the data set with His6-HsfA2 [2] it was “no binding”; with His6-S-HsfB1, “binds”; with His6-tDBD it was “binds”.

The values above are taken from publication PMC12582567, “Short heat shock factor A2 regulates heat resistance and growth balance in Arabidopsis”.
